# Measured values: publication PMC10786891, “Massively parallel profiling of RNA-targeting CRISPR-Cas13d”
# T1: EsCas13d, nuclease-dead (Eubacterium siraeum, UniProt B0MS50, R295A;H300A;R849A;H854A)
# T1 sequence: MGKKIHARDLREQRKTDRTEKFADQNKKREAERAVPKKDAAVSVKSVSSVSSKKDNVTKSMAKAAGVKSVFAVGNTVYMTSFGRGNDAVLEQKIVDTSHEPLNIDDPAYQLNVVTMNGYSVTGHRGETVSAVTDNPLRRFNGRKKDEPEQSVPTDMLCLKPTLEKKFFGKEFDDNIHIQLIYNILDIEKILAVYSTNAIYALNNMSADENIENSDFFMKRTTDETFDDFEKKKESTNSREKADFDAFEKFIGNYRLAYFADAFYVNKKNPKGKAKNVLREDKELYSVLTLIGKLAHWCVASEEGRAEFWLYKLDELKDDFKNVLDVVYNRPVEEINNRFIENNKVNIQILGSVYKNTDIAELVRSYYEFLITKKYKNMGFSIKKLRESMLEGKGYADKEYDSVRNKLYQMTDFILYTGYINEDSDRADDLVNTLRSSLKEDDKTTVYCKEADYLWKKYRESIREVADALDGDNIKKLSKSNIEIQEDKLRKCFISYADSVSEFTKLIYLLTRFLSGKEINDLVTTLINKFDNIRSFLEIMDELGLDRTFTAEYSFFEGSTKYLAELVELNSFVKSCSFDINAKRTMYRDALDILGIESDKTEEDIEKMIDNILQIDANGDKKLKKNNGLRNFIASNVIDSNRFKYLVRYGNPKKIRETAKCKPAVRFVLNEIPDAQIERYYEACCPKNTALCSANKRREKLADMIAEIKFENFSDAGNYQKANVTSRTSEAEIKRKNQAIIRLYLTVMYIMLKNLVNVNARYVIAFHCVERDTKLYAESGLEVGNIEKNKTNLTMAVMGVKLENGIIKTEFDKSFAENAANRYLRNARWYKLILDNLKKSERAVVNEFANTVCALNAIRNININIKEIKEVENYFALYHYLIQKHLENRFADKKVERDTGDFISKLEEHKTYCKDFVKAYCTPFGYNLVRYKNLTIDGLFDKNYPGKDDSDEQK
# B1: target 1 insU 3' of 20,insA 3' of 2 (mixed)
# RNA 1: CACCCGUGCAAAAAUGCAGGGGUCUAAAACUGAGCGGAUAACCUCUCUAUGG
# RNA 2: GGGAAUGGAUCCACAUCUACGAAUUCGUACCAUUAGAGAGGUUAUCCGCUCAACCGAGAUCGGAAGAGCACACGU
# B2: target 1 U10G,U11G (mixed)
# RNA 1: CACCCGUGCAAAAAUGCAGGGGUCUAAAACUGAGCGGAUAACCUCUCUAUGG
# RNA 2: GGGAAUGGAUCCACAUCUACGAAUUCGUACCAUAGAGAGGGGAUCCGCUCACCGAGAUCGGAAGAGCACACGU
# B3: target 1 insA 3' of 10,insA 3' of 6 (mixed)
# RNA 1: CACCCGUGCAAAAAUGCAGGGGUCUAAAACUGAGCGGAUAACCUCUCUAUGG
# RNA 2: GGGAAUGGAUCCACAUCUACGAAUUCGUACCAUAGAGAGGUUAAUCCAGCUCACCGAGAUCGGAAGAGCACACGU
# B4: target 3 insC 3' of 8,insC 3' of 3 (mixed)
# RNA 1: CACCCGUGCAAAAUUGCAGGGGUCUAAAACGACCUGAAUAUUUCAGAUCAAA
# RNA 2: GGGAAUGGAUCCACAUCUACGAAUUCGUUUUUGAUCUGAAAUAUCUCAGGCUCUGCAGAUCGGAAGAGCACACGU
# B5: target 3 insU 3' of 22,insA 3' of 2 (mixed)
# RNA 1: CACCCGUGCAAAAUUGCAGGGGUCUAAAACGACCUGAAUAUUUCAGAUCAAA
# RNA 2: GGGAAUGGAUCCACAUCUACGAAUUCGUUUUUUGAUCUGAAAUAUUCAGGUACUGCAGAUCGGAAGAGCACACGU
# B6: target 3 insG 3' of 9,insC 3' of 8 (mixed)
# RNA 1: CACCCGUGCAAAAUUGCAGGGGUCUAAAACGACCUGAAUAUUUCAGAUCAAA
# RNA 2: GGGAAUGGAUCCACAUCUACGAAUUCGUUUUUGAUCUGAAAUAGUCUCAGGUCUGCAGAUCGGAAGAGCACACGU
# B7: target 3 A5U,C6U (mixed)
# RNA 1: CACCCGUGCAAAAUUGCAGGGGUCUAAAACGACCUGAAUAUUUCAGAUCAAA
# RNA 2: GGGAAUGGAUCCACAUCUACGAAUUCGUUUUUGAUCUGAAAUAUUUUGGUCUGCAGAUCGGAAGAGCACACGU
# B8: target 3 insU 3' of 13,insA 3' of 2 (mixed)
# RNA 1: CACCCGUGCAAAAUUGCAGGGGUCUAAAACGACCUGAAUAUUUCAGAUCAAA
# RNA 2: GGGAAUGGAUCCACAUCUACGAAUUCGUUUUUGAUCUGAUAAUAUUCAGGUACUGCAGAUCGGAAGAGCACACGU
# B9: target 3 insU 3' of 16,insU 3' of 1 (mixed)
# RNA 1: CACCCGUGCAAAAUUGCAGGGGUCUAAAACGACCUGAAUAUUUCAGAUCAAA
# RNA 2: GGGAAUGGAUCCACAUCUACGAAUUCGUUUUUGAUCUUGAAAUAUUCAGGUCUUGCAGAUCGGAAGAGCACACGU
# B10: target 3 C1G,U22C (mixed)
# RNA 1: CACCCGUGCAAAAUUGCAGGGGUCUAAAACGACCUGAAUAUUUCAGAUCAAA
# RNA 2: GGGAAUGGAUCCACAUCUACGAAUUCGUUCUUGAUCUGAAAUAUUCAGGUGUGCAGAUCGGAAGAGCACACGU
# B11: target 3 insU 3' of 9,insC 3' of 8 (mixed)
# RNA 1: CACCCGUGCAAAAUUGCAGGGGUCUAAAACGACCUGAAUAUUUCAGAUCAAA
# RNA 2: GGGAAUGGAUCCACAUCUACGAAUUCGUUUUUGAUCUGAAAUAUUCUCAGGUCUGCAGAUCGGAAGAGCACACGU
# B12: target 3 insC 3' of 22,insA 3' of 21 (mixed)
# RNA 1: CACCCGUGCAAAAUUGCAGGGGUCUAAAACGACCUGAAUAUUUCAGAUCAAA
# RNA 2: GGGAAUGGAUCCACAUCUACGAAUUCGUUUCUAUGAUCUGAAAUAUUCAGGUCUGCAGAUCGGAAGAGCACACGU
# B13: target 3 insG 3' of 2,insC 3' of 2 (mixed)
# RNA 1: CACCCGUGCAAAAUUGCAGGGGUCUAAAACGACCUGAAUAUUUCAGAUCAAA
# RNA 2: GGGAAUGGAUCCACAUCUACGAAUUCGUUUUUGAUCUGAAAUAUUCAGGUGCCUGCAGAUCGGAAGAGCACACGU
# B14: target 3 insC 3' of 22,insU 3' of 6 (mixed)
# RNA 1: CACCCGUGCAAAAUUGCAGGGGUCUAAAACGACCUGAAUAUUUCAGAUCAAA
# RNA 2: GGGAAUGGAUCCACAUCUACGAAUUCGUUUCUUGAUCUGAAAUAUUCUAGGUCUGCAGAUCGGAAGAGCACACGU
# B15: target 3 C1U,A12C (mixed)
# RNA 1: CACCCGUGCAAAAUUGCAGGGGUCUAAAACGACCUGAAUAUUUCAGAUCAAA
# RNA 2: GGGAAUGGAUCCACAUCUACGAAUUCGUUUUUGAUCUGACAUAUUCAGGUUUGCAGAUCGGAAGAGCACACGU
# B16: target 3 del6,del9 (mixed)
# RNA 1: CACCCGUGCAAAAUUGCAGGGGUCUAAAACGACCUGAAUAUUUCAGAUCAAA
# RNA 2: GGGAAUGGAUCCACAUCUACGAAUUCGUUUUUGAUCUGAAAUUUAGGUCUGCAGAUCGGAAGAGCACACGU
# B17: target 3 U2A,A18G (mixed)
# RNA 1: CACCCGUGCAAAAUUGCAGGGGUCUAAAACGACCUGAAUAUUUCAGAUCAAA
# RNA 2: GGGAAUGGAUCCACAUCUACGAAUUCGUUUUUGGUCUGAAAUAUUCAGGACUGCAGAUCGGAAGAGCACACGU
# B18: target 3 G4A,C6G (mixed)
# RNA 1: CACCCGUGCAAAAUUGCAGGGGUCUAAAACGACCUGAAUAUUUCAGAUCAAA
# RNA 2: GGGAAUGGAUCCACAUCUACGAAUUCGUUUUUGAUCUGAAAUAUUGAAGUCUGCAGAUCGGAAGAGCACACGU
# B19: target 3 U8C,A9G (mixed)
# RNA 1: CACCCGUGCAAAAUUGCAGGGGUCUAAAACGACCUGAAUAUUUCAGAUCAAA
# RNA 2: GGGAAUGGAUCCACAUCUACGAAUUCGUUUUUGAUCUGAAAUGCUCAGGUCUGCAGAUCGGAAGAGCACACGU
# B20: target 3 U22C (mixed)
# RNA 1: CACCCGUGCAAAAUUGCAGGGGUCUAAAACGACCUGAAUAUUUCAGAUCAAA
# RNA 2: GGGAAUGGAUCCACAUCUACGAAUUCGUUCUUGAUCUGAAAUAUUCAGGUCUGCAGAUCGGAAGAGCACACGU
# B21: target 3 C1G,A12G (mixed)
# RNA 1: CACCCGUGCAAAAUUGCAGGGGUCUAAAACGACCUGAAUAUUUCAGAUCAAA
# RNA 2: GGGAAUGGAUCCACAUCUACGAAUUCGUUUUUGAUCUGAGAUAUUCAGGUGUGCAGAUCGGAAGAGCACACGU
# B22: target 3 G4A,A11G (mixed)
# RNA 1: CACCCGUGCAAAAUUGCAGGGGUCUAAAACGACCUGAAUAUUUCAGAUCAAA
# RNA 2: GGGAAUGGAUCCACAUCUACGAAUUCGUUUUUGAUCUGAAGUAUUCAAGUCUGCAGAUCGGAAGAGCACACGU
# B23: target 3 insU 3' of 16,insU 3' of 3 (mixed)
# RNA 1: CACCCGUGCAAAAUUGCAGGGGUCUAAAACGACCUGAAUAUUUCAGAUCAAA
# RNA 2: GGGAAUGGAUCCACAUCUACGAAUUCGUUUUUGAUCUUGAAAUAUUCAGGUUCUGCAGAUCGGAAGAGCACACGU
# B24: target 3 del4,del5 (mixed)
# RNA 1: CACCCGUGCAAAAUUGCAGGGGUCUAAAACGACCUGAAUAUUUCAGAUCAAA
# RNA 2: GGGAAUGGAUCCACAUCUACGAAUUCGUUUUUGAUCUGAAAUAUUCGUCUGCAGAUCGGAAGAGCACACGU
# B25: target 3 insA 3' of 6,insC 3' of 4 (mixed)
# RNA 1: CACCCGUGCAAAAUUGCAGGGGUCUAAAACGACCUGAAUAUUUCAGAUCAAA
# RNA 2: GGGAAUGGAUCCACAUCUACGAAUUCGUUUUUGAUCUGAAAUAUUCAAGCGUCUGCAGAUCGGAAGAGCACACGU
# B26: target 3 insC 3' of 4,insG 3' of 2 (mixed)
# RNA 1: CACCCGUGCAAAAUUGCAGGGGUCUAAAACGACCUGAAUAUUUCAGAUCAAA
# RNA 2: GGGAAUGGAUCCACAUCUACGAAUUCGUUUUUGAUCUGAAAUAUUCAGCGUGCUGCAGAUCGGAAGAGCACACGU
# B27: target 3 U2A,U8C (mixed)
# RNA 1: CACCCGUGCAAAAUUGCAGGGGUCUAAAACGACCUGAAUAUUUCAGAUCAAA
# RNA 2: GGGAAUGGAUCCACAUCUACGAAUUCGUUUUUGAUCUGAAAUACUCAGGACUGCAGAUCGGAAGAGCACACGU
# B28: target 3 insA 3' of 2 (mixed)
# RNA 1: CACCCGUGCAAAAUUGCAGGGGUCUAAAACGACCUGAAUAUUUCAGAUCAAA
# RNA 2: GGGAAUGGAUCCACAUCUACGAAUUCGUUUUUGAUCUGAAAUAUUCAGGUACUGCAGAUCGGAAGAGCACACGU
# Molecular target: T1, EsCas13d, nuclease-dead
# Experiment: crRNA (strand 1, pre-loaded); Mg2+; 40 mM Tris-HCl pH 7.5, 150 mM NaCl, 6 mM MgCl2, 1 mM DTT, 0.1% Tween-20, 0.2 mg/ml BSA; 25 C; 10 min per concentration, then washed
# Conditions: tags: His6-TwinStrep-SUMO cleaved; N-terminal SNAP kept (SNAP-Surface 488); label: 3' end held by stalled T7 RNA polymerase
row,Binder,Kd [µM]
1,B1,0.012 ± 0.0007
2,B2,0.0327 ± 0.0029
3,B3,0.0111 ± 0.0007
4,B4,0.077 ± 0.023
5,B5,0.0262 ± 0.0025
6,B6,0.09 ± 0.0165
7,B7,0.048 ± 0.006
8,B8,0.074 ± 0.0175
9,B9,0.0395 ± 0.0065
10,B10,0.041 ± 0.008
11,B11,0.0815 ± 0.013
12,B12,0.043 ± 0.005
13,B13,0.0685 ± 0.0105
14,B14,0.0296 ± 0.0027
15,B15,0.0865 ± 0.017
16,B16,0.12 ± 0.024
17,B17,0.0555 ± 0.0075
18,B18,0.042 ± 0.0045
19,B19,0.077 ± 0.0155
20,B20,0.0138 ± 0.0018
21,B21,0.05 ± 0.009
22,B22,0.036 ± 0.005
23,B23,0.029 ± 0.005
24,B24,0.0246 ± 0.00215
25,B25,0.0084 ± 0.00095
26,B26,0.0505 ± 0.0095
27,B27,0.0445 ± 0.006
28,B28,0.0302 ± 0.00255
